Measured values from US20250066745A1, “MUTANTS AND USE THEREOF” (BGI SHENZHEN, priority 2021, published 2025).

How the values were obtained:
Type in all cases: biochemical
Set-up in all cases: key to Activity of mutant relative to wild-type Gaussia luciferase without the signal peptide: ratio of mutant luminescence intensity to wild-type Gaussia luciferase
[1] = Luminescence activity assay of purified Gaussia luciferase mutants on fluoro-coelenterazine; details: Substrate f-CTZ (Table 16)
Procedure, shortened: (§1)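 Readout: luminescence intensity, as ratio to signal-peptide-free wild-type enzyme. Enzyme 1 μg/mL, substrate 100 μM stock, 10 μL + 90 μL; buffer 50 mM Tris-HCl pH 8.0, 100 mM NaCl, 0.1% Tween-20.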

[2] = Luminescence activity assay of purified Gaussia luciferase mutants on coelenterazine; details: Substrate CTZ (Table 16)
Procedure, shortened: as §1

[3] = Luminescence activity assay of purified Gaussia luciferase mutants on coelenterazine derivative ZS2; details: Substrate ZS2 (Table 16)
Procedure, shortened: as §1

Molecule | Activity of mutant relative to wild-type Gaussia luciferase without the signal peptide [1] | Activity of mutant relative to wild-type Gaussia luciferase without the signal peptide [2] | Activity of mutant relative to wild-type Gaussia luciferase without the signal peptide [3]
Q152H Q163T T167G S170D G174N A182M G183A: Gaussia luciferase mutant (protein, SIGNAL (1)..(17), Gaussia luciferase mutant) MGVKVLFALICIAVAEAKPTENNEDFNIVAVASNFATTDLDADRGKLPGKKLPLEVLKEMEANARKAGCTRGCLICLSHIKCTPKMKKFIPGRCHTYEGDKESAQGGIGEAIVDIPEIPGFKDLEPMEQFIAQVDLCVDCTTGCLKGLANVHCSDLLKKWLPTRCAGFADKIQNQVDKIKGMAGD | 0.478 | 0.080 | 0.001
Q152H S170D Q175E A182Y: Gaussia luciferase mutant (protein, SIGNAL (1)..(17), Gaussia luciferase mutant) MGVKVLFALICIAVAEAKPTENNEDFNIVAVASNFATTDLDADRGKLPGKKLPLEVLKEMEANARKAGCTRGCLICLSHIKCTPKMKKFIPGRCHTYEGDKESAQGGIGEAIVDIPEIPGFKDLEPMEQFIAQVDLCVDCTTGCLKGLANVHCSDLLKKWLPQRCATFADKIQGEVDKIKGYGGD | 0.583 | 0.615 | 0.723
Q152K Q163S T167S S170N G174N K178S A182Y G183A: Gaussia luciferase mutant (protein, SIGNAL (1)..(17), Gaussia luciferase mutant) MGVKVLFALICIAVAEAKPTENNEDFNIVAVASNFATTDLDADRGKLPGKKLPLEVLKEMEANARKAGCTRGCLICLSHIKCTPKMKKFIPGRCHTYEGDKESAQGGIGEAIVDIPEIPGFKDLEPMEQFIAQVDLCVDCTTGCLKGLANVKCSDLLKKWLPSRCASFANKIQNQVDSIKGYAGD | 1.175 | 0.906 | 0.819
Q152K Q163T S170N G174N K178S A182Y G183A: Gaussia luciferase mutant (protein, SIGNAL (1)..(17), Gaussia luciferase mutant) MGVKVLFALICIAVAEAKPTENNEDFNIVAVASNFATTDLDADRGKLPGKKLPLEVLKEMEANARKAGCTRGCLICLSHIKCTPKMKKFIPGRCHTYEGDKESAQGGIGEAIVDIPEIPGFKDLEPMEQFIAQVDLCVDCTTGCLKGLANVKCSDLLKKWLPTRCATFANKIQNQVDSIKGYAGD | 0.299 | 0.194 | 0.026
Q152R Q163S T167G S170T G174K K178S A182M G183A: Gaussia luciferase mutant (protein, SIGNAL (1)..(17), Gaussia luciferase mutant) MGVKVLFALICIAVAEAKPTENNEDFNIVAVASNFATTDLDADRGKLPGKKLPLEVLKEMEANARKAGCTRGCLICLSHIKCTPKMKKFIPGRCHTYEGDKESAQGGIGEAIVDIPEIPGFKDLEPMEQFIAQVDLCVDCTTGCLKGLANVRCSDLLKKWLPSRCAGFATKIQKQVDSIKGMAGD | 1.864 | 1.171 | 2.367
Q152R Q163S T167S S170D G174K Q175E K178N A182M: Gaussia luciferase mutant (protein, SIGNAL (1)..(17), Gaussia luciferase mutant) MGVKVLFALICIAVAEAKPTENNEDFNIVAVASNFATTDLDADRGKLPGKKLPLEVLKEMEANARKAGCTRGCLICLSHIKCTPKMKKFIPGRCHTYEGDKESAQGGIGEAIVDIPEIPGFKDLEPMEQFIAQVDLCVDCTTGCLKGLANVRCSDLLKKWLPSRCASFADKIQKEVDNIKGMGGD | 1.020 | 4.609 | 3.139
E102K S103T A104G E110G V138D I172: Gaussia luciferase mutant (protein) MGVKVLFALICIAVAEAKPTENNEDFNIVAVASNFATTDLDADRGKLPGKKLPLEVLKEMEANARKAGCTRGCLICLSHIKCTPKMKKFIPGRCHTYEGDKKTGQGGIGGAIVDIPEIPGFKDLEPMEQFIAQVDLCDDCTTGCLKGLANVQCSDLLKKWLPQRCATFASKIQGQVDKIKGAGGD | 2.719 | 0.622 | 0.550
Q152R T167G G174S Q175E K178N A182Y G183A: Gaussia luciferase mutant (protein, SIGNAL (1)..(17), Gaussia luciferase mutant) MGVKVLFALICIAVAEAKPTENNEDFNIVAVASNFATTDLDADRGKLPGKKLPLEVLKEMEANARKAGCTRGCLICLSHIKCTPKMKKFIPGRCHTYEGDKESAQGGIGEAIVDIPEIPGFKDLEPMEQFIAQVDLCVDCTTGCLKGLANVRCSDLLKKWLPQRCAGFASKIQSEVDNIKGYAGD | 0.404 | 0.703 | 0.481

More lines, now with the values ahead:

Activity of mutant relative to wild-type Gaussia luciferase without the signal peptide [1] | Activity of mutant relative to wild-type Gaussia luciferase without the signal peptide [2] | Activity of mutant relative to wild-type Gaussia luciferase without the signal peptide [3] | Molecule
0.172 | 0.177 | 0.087 | Q152H Q163T T167G S170N Q175E A182L G183A: Gaussia luciferase mutant (protein, SIGNAL (1)..(17), Gaussia luciferase mutant) MGVKVLFALICIAVAEAKPTENNEDFNIVAVASNFATTDLDADRGKLPGKKLPLEVLKEMEANARKAGCTRGCLICLSHIKCTPKMKKFIPGRCHTYEGDKESAQGGIGEAIVDIPEIPGFKDLEPMEQFIAQVDLCVDCTTGCLKGLANVHCSDLLKKWLPTRCAGFANKIQGEVDKIKGLAGD
4.919 | 0.106 | 0.065 | E102K S103T A104G E110G V138D: Gaussia luciferase mutant (protein, SIGNAL (1)..(17), Gaussia luciferase mutant) MGVKVLFALICIAVAEAKPTENNEDFNIVAVASNFATTDLDADRGKLPGKKLPLEVLKEMEANARKAGCTRGCLICLSHIKCTPKMKKFIPGRCHTYEGDKKTGQGGIGGAIVDIPEIPGFKDLEPMEQFIAQVDLCDDCTTGCLKGLANVQCSDLLKKWLPQRCATFASKIQGQVDKIKGAGGD
2.069 | 4.938 | 2.672 | Q152H S170D G174S K178T A182L: Gaussia luciferase mutant (protein, SIGNAL (1)..(17), Gaussia luciferase mutant) MGVKVLFALICIAVAEAKPTENNEDFNIVAVASNFATTDLDADRGKLPGKKLPLEVLKEMEANARKAGCTRGCLICLSHIKCTPKMKKFIPGRCHTYEGDKESAQGGIGEAIVDIPEIPGFKDLEPMEQFIAQVDLCVDCTTGCLKGLANVHCSDLLKKWLPQRCATFADKIQSQVDTIKGLGGD
0.512 | 0.011 | 0.136 | Q152K Q163S T167G S170V G174K Q175E K180: Gaussia luciferase mutant (protein) MGVKVLFALICIAVAEAKPTENNEDFNIVAVASNFATTDLDADRGKLPGKKLPLEVLKEMEANARKAGCTRGCLICLSHIKCTPKMKKFIPGRCHTYEGDKESAQGGIGEAIVDIPEIPGFKDLEPMEQFIAQVDLCVDCTTGCLKGLANVKCSDLLKKWLPSRCAGFAVKIQKEVDKIKGAGGD
0.135 | 0.170 | 0.138 | Q163T T167S S170V G174N K178N A182Y G183A: Gaussia luciferase mutant (protein, SIGNAL (1)..(17), Gaussia luciferase mutant) MGVKVLFALICIAVAEAKPTENNEDFNIVAVASNFATTDLDADRGKLPGKKLPLEVLKEMEANARKAGCTRGCLICLSHIKCTPKMKKFIPGRCHTYEGDKESAQGGIGEAIVDIPEIPGFKDLEPMEQFIAQVDLCVDCTTGCLKGLANVQCSDLLKKWLPTRCASFAVKIQNQVDNIKGYAGD
1.701 | 1.165 | 1.337 | S103I A104G E110G L124M V138D: Gaussia luciferase mutant (protein, SIGNAL (1)..(17), Gaussia luciferase mutant) MGVKVLFALICIAVAEAKPTENNEDFNIVAVASNFATTDLDADRGKLPGKKLPLEVLKEMEANARKAGCTRGCLICLSHIKCTPKMKKFIPGRCHTYEGDKEIGQGGIGGAIVDIPEIPGFKDMEPMEQFIAQVDLCDDCTTGCLKGLANVQCSDLLKKWLPQRCATFASKIQGQVDKIKGAGGD
